One data set has as its system CD20+ cells. The experiment in a line: LPS-induced proliferation in HWB, flow cytometry, CD20. It counts as cell-based. The conditions noted are these: Homo sapiens, 72 hrs. (A flow cytometer gives signals particle by particle.)
Data set [1] has as its system Daudi, RPMI-8226, Raji, and U266B1 cells. The experiment in a line: in situ caspase-3 kit, apoptosis (Example 3), cell lines tested. It counts as cell-based. The note with it: 24 hrs. Here is the method:
In order to determine the effect of S-isomer of a compound of formula A, UBX, and combinations thereof on apoptosis in cancer cells, an in situ caspase-3 kit (Millipore) was used. Cells were plated in a 6 well plate at a concentration of 0.5×10^6 cells/ml, treated with either S-isomer of a compound of formula A (1000 nM), UBX (100 μg/ml to 0.1 μg/ml), or UBX with S-isomer of a compound of formula A at 1000 nM, and incubated for 24 hrs at 37° C. and 5% CO2. The cells were then transferred to microfuge tubes to receive 10 μl of freshly prepared FLICA™ reagent and incubated for 1 hour at 37° C. and 5% CO2 away from light. After extensive washes with wash buffer, test samples were adjusted to equalize the number of cells in PBS. 100 μl of each cell suspension was transferred to black 96-well plates in duplicates, and the fluorescence was read at an excitation wavelength of 490 nm and an emission wavelength of 520 nm in a plate reader. The fluorescence intensity for a DMSO control was subtracted from that of test compounds. Data was expressed as a percent of the maximum response (100%) and plotted accordingly.

The next data set concerns LY1 Cells. The experiment in a line: in situ caspase-3 kit, caspase 3 activity and combination index (Example 5). It counts as cell-based. The note with it: for Caspase 3 Activity: LY1 cells, 24 hrs. Here is the method: (§1) In order to determine the effect of S-isomer of a compound of formula A, UBX, and combinations thereof on apoptosis in cancer cells, an in situ caspase-3 kit (Millipore) was used. CELLS were plated in a 6 well plate at a concentration of 0.5×10^6 cells/ml, treated with either S-isomer of a compound of formula A (200-5000 nM), UBX (10,000 ng/ml to 10 ng/ml), or UBX with S-isomer of a compound of formula A (as indicated), and incubated for 24 hrs at 37° C. and 5% CO2. The cells were then transferred to microfuge tubes to receive 10 μl of freshly prepared FLICA™ reagent and incubated for 1 hour at 37° C. and 5% CO2 away from light. After extensive washes with wash buffer, test samples were adjusted to equalize the number of cells in PBS. 100 μl of each cell suspension was transferred to black 96-well plates in duplicates, and the fluorescence was read at an excitation wavelength of 490 nm and an emission wavelength of 520 nm in a plate reader. The fluorescence intensity for a DMSO control was subtracted from that of test compounds. Data was expressed as caspase-3 activity a combination index (C.I.) calculated.

The subject of another data set is Raji Cells. The description is as above. It counts as cell-based. The conditions noted are these: 24 hrs; for Caspase 3 Activity: Raji cells. Here is the method: as §1
The test system of a further data set is CD19+ B-cell. The experiment in a line: LPS-induced proliferation in HWB, flow cytometry, CD19. The data set is classed as cell-based, human. The note with it: 72 hrs. Here is the method: Flow cytometry was used to study the effect of S-isomer of a compound of formula A, Ubx, and combinations thereof on LPS-induced proliferation of CD19 and CD20 cells in HWB. In these experiments, 250 μl of diluted (1:3.5 with RPMI-HG Media) HWB sample was treated with either S-isomer of a compound of formula A (10 μM to 0.1 μM), UBX (100 μg/ml to 0.1 μg/ml) or UBX with S-isomer of a compound of formula A at 1000 nM for 15 minutes followed by 20 μg/ml LPS induction and incubated for 72 hrs at 37° C. and 5% CO2. 20 μl of treated sample was taken in a 1.5 ml centrifuge tube and labeled with CD20 FITC and CD19 PE antibody and incubated in the dark for 1 hour at RT. 1 ml of RBC lysing solution was added and tubes were centrifuged at 3000 rpm for 10 minutes. Supernatant was aspirated, and 250 μl of PBS was added to the pellet. Tubes were vortexed, and 5000 events were acquired on a Guava® easyCyte™ flow cytometer and analyzed with Incyte Software.
Gated population of lymphocytes positive cells were further analyzed for CD19 and CD20. Cells positive for CD19 and/or CD20 were calculated, and data were expressed as the percentage positive cells in the population. The loss of positive population from control with LPS induction was calculated and expressed as % inhibition with respect to control.

Another data set concerns B-cells. The data set is described as follows: cytotoxicity to B-cells. The data set is classed as cell-based. The note with it: concentrations up to 10 μM.
The subject of data set [2] is U266B1, DB, Raji, and Daudi cells. The experiment in a line: cell cycle assay, flow cytometry, cell-lines tested. The data set is classed as cell-based. The note with it: 72 hrs. Here is the method:
A cell cycle assay reagent (Millipore) was used to determine the effect of S-isomer of a compound of formula A, UBX, and combinations thereof on the cell cycle in cancerous cells. In these experiments, cells were plated in a 6-well plate at a concentration of 0.5×10^6 cells/ml, treated with either S-isomer of a compound of formula A (10 μM to 0.1 μM), UBX (100 μg/ml to 0.1 μg/ml), or UBX with S-isomer of a compound of formula A at 1000 nM, and incubated for 72 hrs at 37° C. and 5% CO2. The cells were transferred to microfuge tubes to receive 50 μl of cell cycle reagent and incubated for 30 minutes at RT away from light. Cells were then diluted with 300-400 μl PBS, and a minimum of 10,000 events were acquired on a Guava® easyCyte™ flow cytometer. The data was analyzed with Express Pro software and the percentage of the cell population in different cell cycle stages with respect to control was presented in histograms.

The inhibition is how much of the control response was suppressed.

`CC(C)Oc1ccc(-c2nn([C@@H](C)c3oc4ccc(F)cc4c(=O)c3-c3cccc(F)c3)c3ncnc(N)c23)cc1F` [S-isomer, (S)-2-(1-(4-amino-3-(3-fluoro-4-isopropoxyphenyl)-1H-pyrazolo[3,4-d]pyrimidin-1-yl)ethyl)-6-fluoro-3-(3-fluorophenyl)-4H-chromen-4-one]: the inhibition at 1 µM is about 40% in the data set with CD20+ cells and about 60% with CD19+ B-cell (Homo sapiens, B-cell, 1 μM). Also, the Caspase-3 activity increase in data set [1] (1 μM, cell lines) was 40-75%. For the same molecule, the “Caspase 3 Activity” value was found to be 0.06 in the data set on LY1 Cells (S-isomer 200 nM); 0.17 in the data set with LY1 Cells (S-isomer 1000 nM); 0.61 in the data set on LY1 Cells (S-isomer 5000 nM); 0.36 in the data set with Raji Cells (S-isomer 200 nM); 0.56 in the data set on Raji Cells (S-isomer 1000 nM); 0.80 in the data set with Raji Cells (S-isomer 5000 nM). The “cytotoxic to B-cells” value with B-cells is on record as “not cytotoxic”. The cell cycle effect entry in data set [2] is given as “dose-dependent G2/M arrest”.

B1: UBX: monoclonal antibody that targets a specific and unique epitope on CD20, bioengineered for enhanced clinical activity and potency (antibody, V domains shown)
VH: QAYLQQSGAELVRPGASVKMSCKASGYTFTSYNMHWVKQTPRQGLEWIGGIYPGNGDTSYNQKFKGKATLTVGKSSSTAYMQLSSLTSEDSAVYFCARYDYNYAMDYWGQGTSVTVSS
VL: QIVLSQSPAILSASPGEKVTMTCRASSSVSYMHWYQQKPGSSPKPWIYATSNLASGVPARFSGSGSGTSYSFTISRVEAEDAATYYCQQWTFNPPTFGGGTRLEIK
modifications: antibody fragment
On to B1, for which, in data set [1] (cell lines tested), the “ability to induce Caspase-3 activity” value is on record as “limited ability”. The caspase-3 activity result is listed as “induced” with LY1 Cells (LY1, 24 hrs) and “induced” in the data set on Raji Cells (Raji). Moreover, the “Caspase 3 Activity” value is recorded as 0.23 in the data set on LY1 Cells (UBX 10 ng/ml); 0.32 with LY1 Cells (UBX 100 ng/ml); 0.53 in the data set with LY1 Cells (UBX 1000 ng/ml); 0.59 in the data set on LY1 Cells (UBX 10,000 ng/ml); 0.18 in the data set with Raji Cells (UBX 10 ng/ml); 0.31 in the data set on Raji Cells (UBX 100 ng/ml). Moreover, the “Caspase 3 Activity” value in the data set with Raji Cells (UBX 1000 ng/ml) is 0.51; with Raji Cells (UBX 10,000 ng/ml), 0.60. In the data set with CD19+ B-cell, the “effect on CD19+ cells (LPS-induced proliferation)” value is listed as “minimal effect”.

Values taken from US10729768B2, “Combination of anti-CD20 antibody and PI3 kinase selective inhibitor” (TG Therapeutics, Inc., priority 2012, dated 2020).
